# Values of other authors, collected in paper PMC4303689.
# Biological target: His50 (UniProt position 50, KEGVVHGVATV)
# Assay: NMR
# Conditions: not stated (the range of values reflects different ionic strengths); free monomeric alpha-synuclein (inferred from context)
substance,measurement,value
alpha-synuclein (Homo sapiens),pKa,6.5–6.8
